# According to patent US11433139B2, “Peptide vaccines against interleukin-31” (Zoetis Services LLC, priority 2018, dated 2022):
# Where no end group is shown, it is not given here.
# Assays:
# [1] = tested on: mAb ZTS-361; assay: Peptide block of mAb ZTS-361 inhibition of IL-31 mediated STAT3 phosphorylation in feline FCWF-4 macrophages; type: cell-based
# [2] = tested on: full length feline IL-31; assay: Cat serology study, serum titers by indirect ELISA to feline IL-31; type: in vivo; conditions: laboratory cats, 10 μg/dose s.c. days 0, 28, 56, Bay R1005 and CpG adjuvant mixture
# Description: 2.9. Serum titers to IL-31 following immunization of laboratory cats with IL-31 feline and equine mimotopes and full length feline IL-31 protein A serology study was performed using laboratory cats like the study design described herein in section 2.3 however in this study feline and equine mimotopes were compared. Laboratory cats were subcutaneously administered the conjugated IL-31 mimotopes adjuvanted with a mixture including the glycolipid adjuvant Bay R1005 (N-(2-Deoxy-2-L-leucylamino-β-D-glucopyranosyl)-N-octadecyldodecanoylamidehydroacetate) as well as CpG oligonucleotides. A control group was included containing CRM-197 conjugated feline IL-31 (SEQ ID NO: 157; Feline_IL31_wildtype), the corresponding nucleotide sequence for which is (SEQ ID NO: 158; Feline_IL-31_wildtype) in an adjuvant mixture including the glycolipid adjuvant Bay R1005 (N-(2-Deoxy-2-L-leucylamino-β-D-glucopyranosyl)-N-octadecyldodecanoylamidehydroacetate) as well as CpG oligonucleotides. (T01). 10 μg/dose of each adjuvanted mimotope or control was administered subcutaneously on days 0, 28, and 56 (0.5 ml of a 20 μg/ml solution). Blood for serum was taken on day −14, 0 (pre-dose), 28 (pre-dose), 42, 56 (pre-dose), 70, and 84. In addition, on days 35 and 63, approximately 40 mls of blood was collected from each animal into lithium heparin tubes and processed for PBMC isolation using a standard method. […]
# [3] = Stability of cIL-31 following dialysis into PBS; type: physicochemical
# Description: The Interleukin 31 protein varies in amino acid sequence conservation among homologous species (FIGS. 1A and 1B) but is believed to have common structural architecture with other members of the type I cytokine family (Boulay et al. 2003, Immunity. August; 19(2):159-632003; Dillon et al. 2004 Nat Immunol. July; 5(7):752-60). This up-down bundle topology is significant to the mode of receptor recognition shared by these cytokines (Dillon et al. supra, Cornelissen et al. 2012 Eur J Cell Biol. June-July; 91(6-7):552-66). With variation in IL-31 protein sequence identities between different species, it is not possible to predict if antibodies raised against one species will cross-react with others given different epitope propensities and local amino acid compositions. As a consequence, multiple forms of IL-31 protein were considered for this work representing multiple species and expression systems. The canine IL-31 protein (cIL-31) was produced to use as an immunogen and a reagent to test affinity and potency of antibody hits. […] Protein concentration was determined using a bicinchoninic assay (BCA assay) with Bovine Serum Albumin (BSA) as a standard (ThermoFisher Scientific, Inc., Rockford, Ill.). […]
# [4] = Pharmacokinetic profile of canine IL-31 in dogs; type: in vivo, dog; conditions: subcutaneous dose of 1.75 μg/kg, within the first hour
# Description: A recent study was performed to determine serum IL-31 levels in cats with a presumptive diagnosis of allergic dermatitis (AD) from several different geographic regions in the USA. […] To understand the levels of canine IL-31 in a previous model development study, the pharmacokinetic profile of canine IL-31 was analyzed in dogs following administration of a subcutaneous dose of 1.75 μg/kg. […] Based on these findings it is reasonable to believe that an intravenous dose of 0.5 μg/kg feline IL-31 used in this feline model will result in a circulating amount that is far excessive to that observed in the naturally occurring disease state for dogs and cats.
# [5] = tested on: full length human IL-31; assay: Dog immunogenicity study, serum titers by indirect ELISA to human IL-31; type: in vivo, canine; conditions: beagle dogs, 10 μg/dose s.c. days 0, 28, 56, ZA-01 adjuvant
# Description: (§1) An immunogenicity study was undertaken to assess the ability of CRM-197-conjugated IL-31 15H05 mimotopes to generate an epitope-specific immune response driven towards the relevant region on the IL-31 protein where antibody 15H05 binds and neutralizes the cytokines ability to activate the IL-31Ra:OSMR co-receptor. The study design is depicted in FIG. 14. Purebred male beagle dogs were subcutaneously administered the conjugated IL-31_15H05 mimotopes adjuvanted with ZA-01. […] Control groups were included containing ZA-01 adjuvant CRM-197 alone (T01) and CRM-197 conjugated feline IL-31 (SEQ ID NO: 159; Feline_IL-31_E_coli), the corresponding nucleotide sequence for which is (SEQ ID NO: 160; Feline_IL-31_E_coli) in ZA-01 (T02). 10 μg/dose of each adjuvanted mimotope or control was administered subcutaneously on days 0, 28, and 56 (0.5 ml of a 20 μg/ml solution). Blood for serum was taken on day 0 (pre-dose), 7, 12, 28 (pre-dose) 35, 42, 49, 56 (pre-dose), 63, 70, 77, and 84. In addition, on days 35 and 84, approximately 40 mls of blood was collected from each animal into lithium heparin tubes and processed for PBMC isolation using a standard method. […]
# (§2) Serum titers from each study day indicated in section 2.3 above were assessed for each animal. Titers were determined using an indirect ELISA where a full length IL-31 protein was used as the capture material for each respective assay. […]
# [6] = tested on: full length canine IL-31; assay: Dog immunogenicity study, serum titers by indirect ELISA to canine IL-31; type: in vivo; conditions: beagle dogs, 10 μg/dose s.c. days 0, 28, 56, ZA-01 adjuvant; maximum dilution 1:50,000
# Description: as §1, §2
# [7] = tested on: full length equine IL-31; assay: Dog immunogenicity study, serum titers by indirect ELISA to equine IL-31; type: in vivo; conditions: beagle dogs, 10 μg/dose s.c. days 0, 28, 56, ZA-01 adjuvant
# Description: as §1, §2
# [8] = tested on: full length feline IL-31 protein; assay: Dog immunogenicity study, serum titers by indirect ELISA to feline IL-31; type: in vivo, canine; conditions: beagle dogs, 10 μg/dose s.c. days 0, 28, 56, ZA-01 adjuvant; maximum dilution 1:50,000
# Description: as §1, §2
# Chain of mAb ZTS-361 (as listed by the source): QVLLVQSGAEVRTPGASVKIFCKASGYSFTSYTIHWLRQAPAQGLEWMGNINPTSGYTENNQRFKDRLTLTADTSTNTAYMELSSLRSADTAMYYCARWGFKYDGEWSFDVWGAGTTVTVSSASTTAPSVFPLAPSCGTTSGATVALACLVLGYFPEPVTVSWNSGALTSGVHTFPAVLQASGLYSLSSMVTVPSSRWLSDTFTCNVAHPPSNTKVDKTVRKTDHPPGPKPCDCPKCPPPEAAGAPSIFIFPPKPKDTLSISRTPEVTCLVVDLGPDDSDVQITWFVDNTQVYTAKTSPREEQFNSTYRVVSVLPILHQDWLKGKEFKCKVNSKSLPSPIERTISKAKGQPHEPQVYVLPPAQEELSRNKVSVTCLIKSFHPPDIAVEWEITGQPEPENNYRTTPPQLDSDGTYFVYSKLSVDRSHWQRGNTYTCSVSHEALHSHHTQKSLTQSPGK
# Chain of mAb ZTS-361 (as listed by the source): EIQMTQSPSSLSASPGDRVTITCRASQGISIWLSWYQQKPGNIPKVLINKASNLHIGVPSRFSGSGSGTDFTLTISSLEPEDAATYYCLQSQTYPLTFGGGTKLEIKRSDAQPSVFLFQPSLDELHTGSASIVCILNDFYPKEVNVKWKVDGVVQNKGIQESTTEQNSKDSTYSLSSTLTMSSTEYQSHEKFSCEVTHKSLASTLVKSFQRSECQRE
# Chain of full length equine IL-31 (as listed by the source): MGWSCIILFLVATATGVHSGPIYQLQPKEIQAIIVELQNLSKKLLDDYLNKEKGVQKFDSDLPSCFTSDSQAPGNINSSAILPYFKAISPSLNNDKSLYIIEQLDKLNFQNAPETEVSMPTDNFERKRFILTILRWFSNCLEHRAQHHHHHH
molecule,measurement,setting,value
"constrained feline IL-31 15H05 mimotope, N-AKVSMPADNFERKNFILT-C plus N and C terminal Cysteines, mT2a (CAKVSMPADNFERKNFILTC; also: constrained via terminal cysteines, mode not given here) [ZTS-563]","IC50, conjugated peptide","[1]; CRM197 conjugated, co-incubated 1 hour with 0.2 μM mAb ZTS-361, FCWF-4 cells",3.384 µg/mL
same,decline of potency following conjugation,[1]; conjugated vs unconjugated,approximately 3 fold
same,feline antibody titers to full length feline IL-31,[2],modest response
"canine IL-31: recombinant canine IL-31 protein (SEQ ID NO: 155) produced in CHO cells (protein, listed as Canis familiaris) MLSHTGPSRFALFLLCSMETLLSSHMAPTHQLPPSDVRKIILELQPLSRGLLEDYQKKETGVPESNRTLLLCLTSDSQPPRLNSSAILPYFRAIRPLSDKNIIDKIIEQLDKLKFQHEPETEISVPADTFECKSFILTILQQFSACLESVFKSLNSGPQ","stability, proteolysis","[3]; PBS, several days at 4° C.",no proteolysis was observed
same,"stability, precipitation",[3]; following dialysis into PBS,No precipitation was observed
same,"peak plasma levels, maximum",[4],about 30 ng/ml
"feline IL-31 CRM: CRM-197 conjugated feline IL-31 (SEQ ID NO: 159; Feline_IL-31_E_coli), control group T02 (conjugate, conjugated to CRM-197 carrier; Amino acid sequence representing feline IL-31 protein with N-terminal His tag) MRGSHHHHHHGSSHMAPAHRLQPSDIRKIILELRPMSKGLLQDYLKKEIGLPESNHSSLPCLSSDSQLPHINGSAILPYFRAIRPLSDKNTIDKIIEQLDKLKFQREPEAKVSMPADNFERKNFILAVLQQFSACLEHVLQSLNSGPQ",canine antibody titers (CRAR) to full length human IL-31,[5],minor
same,canine antibody titers to full length canine IL-31,[6],transient CRAR
same,canine antibody titers (CRAR) to full length equine IL-31,[7],negligible
same,canine antibody titers to full length feline IL-31,[8],moderate and sustained antibody response
